From patent publication US20060140946A1 (published 2006)

Biological target: human tumor necrosis factor-alpha (hTNFα) (human, UniProt P01375 77-233)
Assay: cell-based or functional assay

human tumor necrosis factor-alpha (hTNFα), sequence (P01375 77-233): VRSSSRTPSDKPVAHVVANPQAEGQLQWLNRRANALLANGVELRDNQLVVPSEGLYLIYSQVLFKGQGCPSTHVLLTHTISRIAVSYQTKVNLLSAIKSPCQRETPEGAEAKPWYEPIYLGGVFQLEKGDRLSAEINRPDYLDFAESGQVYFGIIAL

Binder | IC50: concentration of fusion protein required to inhibit 2 ng/ml (39.2 pM) TNFα by 50%, WEHI 164 cytotoxicity assay
p55-sf2 TNF receptor/IgG1 fusion protein (Fc fusion) QVCPQGKYIHPQNNSICCTKCHKGTYLYNDCPGPGQDTDCRECESGSFTASENHLRHCLSCSKCRKEMGQVEISSCTVDRDTVCGCRKNQYRHYWSENLFQCFNCSLCLNGTVHLSCQEKQNTVCTCHAGFFLRENECVSCSNCKKSLECTKLCLPQIPGTLVTVSS | 70 pM
p75P-sf2 TNF receptor/IgG1 fusion protein (Fc fusion) QLPAQVAFTPYAPEPGSTCRLREYYDQTAQMCCSKCSPGQHAKVFCTKTSDTVCDSCEDSTYTQLWNWVPECLSCGSRCSSDQVETQACTREQNRICTCRPGWYCALSKQEGCRLCAPLRKCRPGFGVARPGTETSDVVCKPCAPGTFSNTTSSTDICRPHQICNVVAIPGNASMDAVCTSTSGTLVTVSS | 70 pM
